Source: the DeepSol protein solubility set

test: soluble on expression in E. coli; label from the status in PepcDB or PDB records

| Sequence | soluble on expression in E. coli |
| --- | --- |
| GEIWVYIDHIGEKPNRASFEIMGEARRIADLMDTSLSAVMVGGEATKSLIEETFEYGADKVYFVETKGFDRYDNEVYTRALAKVIKKYKPEAVFFPGTKNARELASTTAIEVDTGLIADCTNFDVDDKGVLLSTRPDFGGKEMSTIICPRHRPVMVTVRAGVFMPLPRVPGRKGELAREEIDDLFTRLKVLDYRVIEKRNI | not soluble |
| MSLEAKECKVQDILTENKKFIIPSYQRPYSWTVDNAEQLIDDIYKSSQSEENEYFIGSMICINKGQNQYEVVDGQQRLTTLSIIVSELKKIIPIQGIKDDLQKRVLPIDVYSDETDEPRLIVRKKEYDLYKYYILQDSKDYKPEKPSDTELVFISNAETIRDYLLRLSVDELKLLAKYILQNVYIVFVQTDDFASSFRLFNVLNSRGLPLSNADLLKNALFESASTHNKKSEQIESAWSQIEDMVGVRRLDKFLTLHKLSEKKDRDRVLQKGFEAFIENLQQQFDGDAIAMSLMLVNSAKNYTKILENDFEHSSIRRKIASLSNLGVDEWIPPVMAFMNRMARTEDFNLDDFSQFITAFEKVYMHGWLKKQIKSQREMVCYSALVAINNDMSFDSVINQINQHADNSGFIAALDEDLYEPRPNQVNLIKAILLRLDMEQQDESVIKTYTGRITIEHILPQALVNEYWINRFQPQEHVYWLHKIGNLTLISGSKNSEAQHYDFIKKKSIYEKLNSKSSFDLTKDVCNSSEWGLAELKMRHEKMKTQLKKLWLVEGHHHHHH | soluble |
| MSLIIIISGPPGSGKTSVAIKLANELSYKFISAGKIFRDIAQSMGLDIINLNRVAESNFDIDKMVDKKIHEYVLRERNLIVESHIAGWIFREYTDVAIYLWAPLKIRANRIAIRDKISYVEAVSQIIRREYMHYKRFNKFYGIDINDLSVFDLVINTSNIDINNIVKLILDYLSSVSHNEGHHHHHH | soluble |
| MEQKNEEIEAIDDRMIAGVEVNFQKMRRSKHKTEERLTSGQVDAFAQKLFEAYPDGSLEGFLDIDDVQKKKLDEQRQEFTGDYPIVQPVLDGSRELMVVLRYNPLYHAVEIYDPVQIYDSEGIPMVVKPIREQIVNLFAHLFLDKIRLIFDIEYEQQADKCSDRLRAVGAMMAIALGYNPAAMDYNLKGISKLVKKILNSESPDFKKFEKADIGTLNAKYSGQNRVTMFIGNNGETLLATRNVYGLEKHALKTGLGKMDKNGHVVERESFLEEEFHDETIYKQFHAPDLGMGKPDNVNAIKLFHVDYRDYDLQNANGLERPIYLEPYKPVQSDCFAVPNLTSTLDRVSSNGELLKYVNEVMQSITPYTPYHLHAQSVEYLRYTPRHMNMCINPLQAIRAWALLANMADGKTNTDLLNFVGKYTYPGQLENNKMMNDDILNLHFEAEKLFEGCVRVFTELPKHLWHNEDIRIIQNSYYGGKSLRGAMQHHCFATDPDGLYSCHRINEEVALSTHGAVNFVVPENHAPNWRASIALVSAMDCTFYWKTYAKPKLMDNFNFVNEQYGASKCVGYFAHADFKFFEDIYCLESRIPGVRLYITFESPDKMDSKKEFMSKLHEKIQTCGDWHTTFDSPVFLPLCTTSTPLSLYAHAKASGLSRIFSSEKSELLEMKSIPARGGARQFSTLYDHYHKTVFEVHGSDPKVENFMRKRPRRMFDQFSPARAHQCVDDSMAELHGKYQMKNPTKEFNNKMNINPLLTYRENHLNHDEPSFEWLHENHEFDLKDPKALMFNKPFYYVMTRALVGKNQLIVCAGYFNNTTWVKQQ | not soluble |
| GACDNDTEPGGTAVEKMAGDWWVTVNAFIDGKEVEDPFGAGHLQMSTYNTASNSETEMWLDDLGNFWEYKLKVNVNYAARTFSTTGFVDNVTYESKVKITDGKVLEKAATTPSGMPADSIVYMVQFDDDEDGLTYKVSGFRRTGFPADDF | soluble |
| MGSDKIHHHHHHVEQAQLDEYLDRFQLTDVFAGGLREHLQPVAFQAGDWLCRQGDAADRMYLLLEGKLKITHMSATGKRLVLSFKHPFDLVGDIEYVRRTPLMNTVEAVTPVKAVSISYAALEQKGADNPALLRFLLETITMKFELKSHSMSFNLLYPVEVRLASYLLSMTPETPTLPVSDLVDAADLIGTSYRHLNRVLRQFSQDNLIERTNRTITIIDREGLTERVGESIYE | not soluble |
| MKFTELTVKEFENFVQNPSLESHYFQVKENIATRESDGFQVVLLGVKDDDNRVIAASLFSKIPTMGSYVYYSNRGPVMDYSDLGLVDFYLKELDKYLHQHQCLYVKLDPYWLYQVYDKDINPLTEKNDALVNLFKSHGYDHHGFTTQYDSSSQVRWMGVLDLEGKTPASLRKEFDSQRKRNINKAINYGVKVRFLSKDEFGLFLDLYRETEARTGFASKTDDYFYNFIEHYGDKVLVPLAYIDLNEYIQHLQESLNDKENRRDDMMAKENKTDKQLKKIAELDKQIDHDKKELLQASELRQTDGEILNLASGVYFANAYEVNYFSGGSSEKYNQYMGPYAMHWHMINYCFDNGYDRYNFYGLSGDFTENSEDYGVYRFKRGFNVRIEELIGDFYKPINKVKYWLFNTLDRIRNKLKK | not soluble |
| MQCYSIVGINYIQIYKAVTRNGIKHNIVVIKNSDYIFTITHYSPRTEYWTIVGNTDRQFYDANVLHNCLYIIGGMINNRHVYSVSRVDLKTKKWKTVTNMSSLKSEVSTCVNDGKLYVIGGLEFSISTGIAEYLKHGTSKWKRLPNLITPRYSGASVFVNDDIYVMGGVYTTMRNM | not soluble |
| SNAMSKDSESNLAQRQSQPKAHADLRINSHWIIPIENTTDHNLVSNILIDHCLLIKDGIILAIEPQSSCQIPATETLDLGQQVLMPGWVNAHGHAAMSLFRGLADDLPLMTWLQEHVWPAEAQHVDEHFVKQGTELAIAEMIQSGTTTFADMYFYPQQSGEAALAAGIRAVCFAPVLDFPTNYAQNADEYIRKAIECNDRFNNHPMNEQGLVQIGFGPHAPYTVSDEPLKEITMLSDQLDMPVQIHLHETDFEVSESLETFNKRPTQRLADIGFLNERVSCVHMTQVDDGDIKILQKTGASIIHCPESNLKLASGFCPIAKLSAANIPLAIGTDGAASNNDLDMFSETKTAALLAKGVSQDASAIPAIEALTMATLGGARALGIDDITGSLKPGKAADIQAIDLNTLSSQPVFDPVSHMVYCTKSTQVSHVWVNGRCLLKNGELTTLNEETLINHAKAWASAIRTPIK | soluble |
| EVENNFPCSLYKDEIMKEIERESKRIKLNDNDDEGNKKIIAPRIFISDDKDSLKCPCDPEMVSNSTCRFFVCKCVERRAEVTSNNEVVVKEEYKDEYADIPEHKPTYDKM | soluble |
| SQGENVDHAQPISTWSAEQELHLVVFTKPPIAGLTKQRLSREIGSTLATRISAALVENTLATAYDWLQGLDLQAGGTGAVHLYYTPVESEQAKAECVERWLDDSVRHRYPAFRIAPQKASKVQSTGDQKQDPLGSRLIQAFTEVTSLVDESRDAHVVVIGSDCPALDTAVLQQAFAALHAGHGAVIGPAQDGGYYLLGLAFAAAERTRWARVIYAAFGPHLVFSQNDVCARTVEALRNDGVRTICLPVTLNDVDTAQDLVHLPASMRPREWFSSANARLHKTSDLVETAPAPGSTTCDEEVDADKLDPSVQNVCSRQV | soluble |
| MAKVLVLYYSMYGHIETMARAVAEGASKVDGAEVVVKRVPETMPPQLFEKAGGKTQTAPVATPQELADYDAIIFGTPTRFGNMSGQMRTFLDQTGGLWASGALYGKLASVFSSTGTGGGQEQTITSTWTTLAHHGMVIVPIGYAAQELFDVSQVRGGTPYGATTIAGGDGSRQPSQEELSIARYQGEYVAGLAVKLNG | soluble |
| MGSDKIHHHHHHMRKLLNTLYVTSPNTYLSLDGENIVILKDDVEALRVPLHNLESIIAFGYTGASPALMGACAKRNISLSFMKSNGKFLGRVVGEVRGNVTLRKAQYRLSDDEATSHRIAKSFILGKVYNSRWVVERATRDHGARLDVEKLKGVCQTLANALRLVENSKDLDQLRGVEGEAAAQYFRVLDDLILQQKEDFYFKCRNKRPPLDNVNAMLSFIYTLLAHDAAAALETVGLDPYVGFLHRDRPGRISLALDLMEELRAVFADRFVLSLINRREVNPSGFTRMENGAVVMDDDTRRDILKAWQSRKQEEIKHPFLQEKMEWGLVPYAQAMLLARFIRGDLDGYPAFMWK | not soluble |
| MSSSGVYTCNSCVLTFDSSDEQRAHMKSDWHRYNLKRRVAQLPPISFETFDSKVSAAAASTSKSAEKEKPVTKKELKRREKQALLEKKKKLLEIARANMLENMQKSQEGNTPDLSKLSLQENEENKEKEEPKKEEPEQLTEEEMAERVMQENVRNRVDIPLEQCLFCEHNKHFKDVEENLEHMFRTHGFYIPEQKYLVDKIGLVKYMSEKIGLGNICIVCNYQGRTLTAVRQHMLAKRHCKIPYESEDERLEISEFYDFTSSYANFNSNTTPDNEDDWEDVGSDEAGSDDEDLPQEYLYNDGIELHLPTGIKVGHRSLQRYYKQDLKPEVILTEGQGTLVAAETRSFLPAFDKKGVQTQQRVWQTERFDKKRLDKRSAKFVNNQPHYRDQLLQ | soluble |
| MNKRNTQQRRHSIISILNEQGEVSVDELSLRFETSEVTIRKDLAELEKTGLLLRRYGGAVAIPDEVTQQFSAKIAPNKLSIAKAAAQLIKDHNRIIIDSGTTTSGLIAELNQKRGLVVMTNALHLANAIHELENEPTLLMTGGTWDPHSESFQGQVAEQVLRSYNFDQLFIGADGIDLARGTTTFNELTGLSKVMAEVSREVIVMVDSDKIGKRIPNLELPWSKISVLVTDARIEESALKQITEQGVKVILAPYSPLEHHHHHH | soluble |
| MGTPQGKLKTINGVGKIEDFASTKAKMRVRYPLLITFNYWVLYKSPDKSWFISANPSTEDVWVYARSVPSKAKLNRMMMKVRELGYDVKKLEFPLEHHHHHH | not soluble |
| MNLAGSTIQAYRQRKIESLAKMSNMSQDDVTTGLRTVQQGLEALREEHSTISNTLETSVKGVKEDEAPLPKQKLSQINDNLDKLVCGVDETSLMLMVFQLTQGMDAQHQKYQAQRRRLCQENAWLRDELSSTQIKLQQSEQMVAQLEEENKHLKYMASIKQFDDGTQSDTKTSVDVGPQPVTNETLQELGFGPEDEEDMNASQFNQPTPANQMAASANVGYEIPARLRTLHNLVIQYASQGRYEVAVPLCKQALEDLEKTSGHDHPDVATMLNILALVYRDQNKYKEAANLLNEALSIREKCLGESHPAVAATLNNLAVLFGKRGKFKDAEPLCKRALEIREKVLGDDHPDVAKQLNNLALLCQNQGKYEEVEKYYKRALEIYESKLGPDDPNVAKTKNNLSSAYLKQGKYKEAEELYKQILTRAHEREFGQISGENKPIWQIAEEREENKHKGEGATANEQAGWAKAAKVDSPTVTTTLKNLGALYRRQGKYEAAETLEDVALRAKKQMSESRRMERSVMY | not soluble |
| GAMEVIKNPKVFIDPLSVFKEIPFREDILRDAAIAIRYFVKNEVKFSNLFLGLTGTGKTFVSKYIFNEIEEVKKEDEEYKDVKQAYVNCREVGGTPQAVLSSLAGKLTGFSVPKHGINLGEYIDKIKNGTRNIRAIIYLDEVDTLVKRRGGDIVLYQLLRSDANISVIMISNDINVRDYMEPRVLSSLGPSVIFKPYDAEQLKFILSKYAEYGLIKGTYDDEILSYIAAISAKEHGDARKAVNLLFRAAQLASGGGIIRKEHVDKAIVDYEQERLIEAVKALPFHYKLALRSLIESEDVMSAHKMYTDLCNKFKQKPLSYRRFSDIISELDMFGIVKIRIINRGRAGGVKKYALVEDKEKVLRALNETFEDSISIGDFDDVGEN | soluble |
| LRRGHLKLQRDGQIIGHTPEEWEQIFREVWPEYEIEPNPLPGYAPFDIGMWLTVEAPAYAVWIDPEDGSEYWAG | not soluble |
| MEERNHENTLEKDLEAVGQEAQALEERLKAAEEELKGLKDKYLRLLADFDNYRKRMEEELKAREREGVLKALRALLPVLDDLDRALEFAEASPESIRQGVRAIRDGFFRILAGLGVEEVPGEGEAFDPRYHEAVGLLPGEPGKVAKVFQRGFRMGEALVRPARVAVGEEKREEADLE | soluble |
